The values below come from paper PMC3267040, “Structure of a Blinkin-BUBR1 Complex Reveals an Interaction Crucial for Kinetochore-Mitotic Checkpoint Regulation via an Unanticipated Binding Site” (Structure(London, England:1993), 2011).

Data set [1] addresses T1, BUBR1_(57-220), recombinant protein (human, UniProt O60566 57-220).
T1 construct: BUBR1, human, residues 57-220 (TPR-containing domain); 15N,13C-labelled for NMR; also called native BUBR1; free BUBR1
The data set can be described thus: ITC; BUBR1_(57-220) at 27 μM titrated against 200 μM of Blinkin peptide S208-K226. Conditions: both partners purified.

Data set [2] deals with T1, BUBR1_(57-220), recombinant protein. The experiment in a line: fluorescence-based thermal shift assay; Tm of BUBR1_(57-220) without and with Blinkin S208-K226 peptide. Conditions: both partners purified.

T1 sequence (O60566 57-220): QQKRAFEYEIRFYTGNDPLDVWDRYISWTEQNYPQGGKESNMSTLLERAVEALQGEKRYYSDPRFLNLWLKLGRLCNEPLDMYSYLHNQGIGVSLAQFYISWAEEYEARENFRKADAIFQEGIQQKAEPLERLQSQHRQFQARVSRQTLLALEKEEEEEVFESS

B1: Blinkin S208-K226 peptide (peptide, UniProt Q8NG31-2 208-226, looked up)
peptide: SSENKIDFNDFIKRLKTGK
notes: Blinkin (KNL1, CASC5), human, NCBI NP_653091.2, residues S208-K226; peptide synthesis is in the supplement; also called Blinkin peptide; source: synthetic peptide
For B1, in data set [1], the Kd came to 9.3 ± 0.4 µM, the dH was -11.3 kJ/mol and the “stoichiometry N” value turned out to be 1. Also, the “increase of the Tm of BUBR1_(57-220) on addition of the peptide” value in data set [2] was approximately 2 °C.

A word on the Kd: it is a measure of binding affinity in units of concentration. As a reminder, the stoichiometry N is the number of molecules, sites or subunits per partner or assembly.
